In PMC9640623, “SAMHD1 deacetylation by SIRT1 promotes DNA end resection by facilitating DNA binding at double-strand breaks” (Nature Communications, 2021):

Target: T1, 6xHis-SAMHD1 wild-type (full-length, recombinant) (human, UniProt Q9Y3Z3 1-626)
T1 construct: SAMHD1, full-length, from pET14b-6xHis-SAMHD1 (gift from Dr. Baek Kim); with N-terminal His tag and linker region, calculated molecular weight 74 kDa; Tetramer only stated after preincubation with dGTP; also called recombinant SAMHD1; SAMHD1 WT protein; source: E. coli BL21 Rosetta, purified (His-Trap, Superdex 200 SEC); not shown: His6, N-terminal, kept
Assay: pull-down; GST-SIRT1 (193-741) pre-incubated with glutathione-agarose beads in 50 mM Tris-Cl pH 8, 150 mM NaCl, protease inhibitors, 1 h at 4 °C; recombinant SAMHD1 added for 2 h at 4 °C; blots with anti-SAMHD1 or anti-GST
Details: both partners purified

T1 sequence (Q9Y3Z3 whole entry): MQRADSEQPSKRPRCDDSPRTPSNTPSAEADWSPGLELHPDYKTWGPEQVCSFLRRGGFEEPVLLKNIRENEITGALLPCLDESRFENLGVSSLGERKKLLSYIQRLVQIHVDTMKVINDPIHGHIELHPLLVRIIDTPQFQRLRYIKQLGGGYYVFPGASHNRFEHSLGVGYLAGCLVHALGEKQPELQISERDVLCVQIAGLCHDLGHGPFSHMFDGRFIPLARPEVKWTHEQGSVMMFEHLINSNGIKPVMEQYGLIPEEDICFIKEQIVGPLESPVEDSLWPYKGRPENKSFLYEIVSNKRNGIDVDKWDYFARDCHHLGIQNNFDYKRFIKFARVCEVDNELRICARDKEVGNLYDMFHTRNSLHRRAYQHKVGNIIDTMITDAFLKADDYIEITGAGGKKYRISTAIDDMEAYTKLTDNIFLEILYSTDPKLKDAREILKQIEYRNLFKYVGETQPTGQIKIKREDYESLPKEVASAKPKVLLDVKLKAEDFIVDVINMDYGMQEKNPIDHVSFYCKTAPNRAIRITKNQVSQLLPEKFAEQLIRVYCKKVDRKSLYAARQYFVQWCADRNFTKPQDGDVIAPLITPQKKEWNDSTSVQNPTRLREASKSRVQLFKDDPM

binding result: binds
B1: GST-SIRT1 (containing amino acids 193-741 of SIRT1) (domain or fragment, UniProt Q96EB6 193-741, looked up)
chain: MIGTDPRTILKDLLPETIPPPELDDMTLWQIVINILSEPPKRKKRKDINTIEDAVKLLQECKKIIVLTGAGVSVSCGIPDFRSRDGIYARLAVDFPDLPDPQAMFDIEYFRKDPRPFFKFAKEIYPGQFQPSLCHKFIALSDKEGKLLRNYTQNIDTLEQVAGIQRIIQCHGSFATASCLICKYKVDCEAVRGDIFNQVVPRCPRCPADEPLAIMKPEIVFFGENLPEQFHRAMKYDKDEVDLLIVIGSSLKVRPVALIPSSIPHEVPQILINREPLPHLHFDVELLGDCDVIINELCHRLGGEYAKLCCNPVKLSEITEKPPRTQKELAYLSELPPTPLHVSEDSSSPERTSPPDSSVIVTLLDQAAKSNDDLDVSESKGCMEEKPQEVQTSRNVESIAEQMENPDLKNVGSSTGEKNERTSVAGTVRKCWPNRVAKEQISRRLDGNQYLFLPPNRYIFHGAEVYSDSEDDVLSSSSCGSNSDSGTCQSPSLEEPMEDESEIEEFYNGLEDEPDVPERAGGAGFGTDGDDQEAINEAISVKQEVTDMN
notes: SIRT1 amino acids 193-741, recombinant, lacking N-terminal amino acids 1-192; The results call it bacterially-purified; also called GST-SIRT1 (lacking N-terminal amino acids 1–192); source: bought: Active Motif # 31533
